Columns and labels:
human airway epithelia [1] = assay: Endotoxin responsiveness of primary human airway epithelia (HBD-2 mRNA real time PCR, NF-κB-luciferase); assay type: cell-based; conditions: IL-1β 100 ng/ml, 24 hr, real time PCR
Procedure: FIG. 6 depicts endotoxin responsiveness of well-differentiated primary cultures of human airway epithelia. Polarized epithelia were treated with NTHi LOS (100 ng/ml), sCD14 (100 ng/ml) and LBP (250 ng/ml) by apical application in a 50 μl volume. Twenty-four hours later, epithelia were harvested and analyzed for HBD-2 mRNA expression by real time PCR. As depicted in FIG. 6A, apical stimulation of airway epithelia with NTHi LOS induced little change in HBD-2 MRNA expression (2 epithelia/trial, n=3 different donors, * indicates p<0.05). In contrast, IL-1β markedly induces HBD-2 mRNA. FIG. 6B depicts the polarity of epithelial responses to IL-1β and NTHi LOS. […]
FIG. 9 depicts the effects of MD-2 complementation on endotoxin responsiveness in human airway epithelia. […] Fold increase in HBD-2 mRNA expression were quantified by real time PCR. […] NF-κB-luciferase activity was measured 24 hr following endotoxin treatment (n=5 epithelia/condition, * indicates p<0.05). […] 24 hr after endotoxin treatment, HBD-2 expression was quantified by real time PCR. […]
Well differentiated human airway epithelia were treated with N. meningitidis LOS-sCD14 (5 ng LOS/ml), with or without the addition of cell culture supernatants containing rMD-2. […] HBD-2 expression was quantified by real time PCR. […]
Real-time PCR was employed to detect human β-defensin-2 and MD-2 and to quantify changes in expression. […]

human airway epithelia [2] = assay: MD-2 mRNA expression in human airway epithelia after stimuli (real time PCR); assay type: cell-based; conditions: 18–24 hr stimulation
Procedure: Fold increase in MD-2 mRNA expression was quantified using real time PCR. FIG. 10 represents the results from three independent experiments on three different epithelial preparations. * indicates p<0.05.
Real-time PCR was employed to detect human β-defensin-2 and MD-2 and to quantify changes in expression. Real-time quantitative PCR was performed using a sequence detector (ABI PRISM 7700, Applied Biosystems, Foster City, Calif.) and Taqman technology (Roche Molecular Diagnostic Systems) following the manufacturer's protocols (Bustin, 2000). The primers and probes were designed using the Primer Express program (Applied Biosystems). For MD-2, the primers were-forward5′-[…]-3′ (SEQ ID NO:11), reverse 5′-GCATTTCTTCTGGGCTCCC-3′ (SEQ ID NO:12), and probe 5′-[…]-3′ (SEQ ID NO:13). For HBD-2, the forward primer was-5′-[…]-3′ (SEQ ID NO:14), the reverse primer-5′-[…]-3′ (SEQ ID NO:15), and the probe was-5′-[…]-3′ (SEQ ID NO:16). Both probes contain a fluorescent reporter (6-Carboxyfluorescein [FAM]) at the 5′ end and a fluorescent quencher (6-Carboxytetramethylrhodamine [TAMRA]) at the 3′ end. As an internal control for normalization, human GAPDH real-time quantitative PCR was conducted in every reaction. The primers and probes were purchased from Roche Molecular Diagnostic Systems. The PCR fragments were amplified for 40 cycles (15 sec at 95° C. and 1 min at 60° C.). […]

TLR4 = target: T1, TLR4 (Homo sapiens, UniProt O00206+Q9Y6Y9); assay: HEK cell activation assay: extracellular IL-8 by ELISA; assay type: cell-based
T1 construct: host or cells: HEK293 stably transfected with TLR4 (HEK/TLR4)
Description: Conditioned insect cell culture medium containing soluble, polyhistidine-tagged recombinant wild-type (wt) or C95Y mutant MD-2 were generated according to the method of Viriyakosol et al. (2001). A human embryonic kidney cell line (HEK293) that stably expresses TLR4 (HEK/TLR4), but lacks both CD14 and MD-2 (Yang et al., 2000), was used to evaluate the effect of MD-2 on the ability of lipooligosaccharide (LOS) to interact with TLR4 and promote activation.
FIG. 1 depicts the expression and bioactivity of recombinant MD-2-His6. FIGS. 1A and 1B depict SDS-PAGE immunoblots of control culture medium (FIG. 1A, lane 1) or medium from HiFive cells infected with recombinant baculovirus encoding wt (FIG. 1A, lane 2; FIG. 1B, lanes 1–3) or C95Y MD-2 (FIG. 1B, lane 4). MD-2 was detected using anti-(His)4 antibody. All samples represent 1 μl of culture medium except B, lanes 2 and 3, which represent 0.3 and 0.1 μl and A, lane 3, which represents molecular weight markers. In FIG. 1C, HEK/TLR4 cells were incubated in HEPES-buffered HBSS+/0.1% albumin with [^14C]-LOSagg (3 ng/ml)+/−LBP (30 ng/ml) and/or (60 μl) culture medium containing wt MD-2 (MD-2) (open bars); LOSagg+LBP and sCD14 (250 ng/ml)+/−wt (closed bars) or C95Y “MD-2” (striped bars), or [^14C]-LOS-sCD14 (2 ng LOS/ml)+/−wt or C95Y “MD-2” (closed bars). After overnight incubation, extracellular IL-8 was assayed by ELISA. In FIG. 1D, HEK/TLR4 cells were incubated with increasing amounts of wt (▪) or C95Y (◯) MD-2+[^14C]-LOS-sCD14 (2 ng/ml) and cell activation measured. Results shown are from one experiment (duplicate samples) representative of four independent experiments.
In FIG. 2, a bioactive complex (Mr˜25,000) containing MD-2 and [^14C]-LOS is formed by incubation of [^14C]-LOS-sCD14 with wt, but not C95Y, MD-2. In FIG. 2A, dialyzed control insect cell medium (◯) or medium containing wt (♦) or C95Y ( ? ) MD-2 was incubated for 30 min, 37° C. with (1:1 vol/vol) [^14C]-LOS-sCD14 in HBSS+, 10 mM HEPES and chromatographed on Sephacryl S100. Column fractions were analyzed for [^14C]-LOS. Identical results were obtained in analytical (5 ng [^14C]-LOS/ml+200 μl culture medium) or more preparative runs (reagents concentrated 20×). In FIG. 2B, peak fractions (Mr˜25,000) from treatment of [^14C]-LOS-sCD14 with wt MD-2 (FIG. 2A) were re-chromatographed on S100 in HBSS+, 10 mM HEPES without HSA; recovery of [^14C]-LOS was >80%. In FIG. 2C, HEK (□) or HEK/TLR4 (▪) were incubated overnight with the indicated amounts of LOS added as purified Mr˜25,000 (LOS-MD-2) complex. Cell activation was measured by IL-8 accumulation. Results shown correspond to one experiment, in duplicate, representative of three similar experiments. FIGS. 2D and 2E depict adsorption and elution of bioactive Mr˜25,000 complex to HisBind resin. Peak fractions of the purified complex (FIG. 2B; 10 ng [^14C]-LOS) were dialyzed against PBS and incubated with HisBind resin (0.125 ml) for 1 hr at 25° C. and processed as described in Methods. Non-adsorbed (Flow-thru) and adsorbed material eluted with 200 mM imidazole were precipitated with trichloroacetic acid to concentrate sample for SDS-PAGE/immunoblot analysis. […]
Purified [^14C]-LOSagg or [^14C]-LOS-sCD14 (3 ng LOS/ml)+/−indicated proteins (30 ng/ml LBP, 250 ng/ml sCD14, 60 μl culture medium) were incubated at 37° C. for 30 min. After this incubation, samples were analyzed by gel filtration chromatography to monitor formation of [^14C]-LOS-MD-2 and by incubation with HEK/TLR4 cells to measure cell activation. […]

MD-2 = assay: Formation of [^14C]-LOS-MD-2 complex monitored by gel filtration chromatography; assay type: binding, human; conditions: 30 min, 37° C., Sephacryl S100
Procedure: In FIG. 2, a bioactive complex (Mr˜25,000) containing MD-2 and [^14C]-LOS is formed by incubation of [^14C]-LOS-sCD14 with wt, but not C95Y, MD-2. In FIG. 2A, dialyzed control insect cell medium (◯) or medium containing wt (♦) or C95Y ( ? ) MD-2 was incubated for 30 min, 37° C. with (1:1 vol/vol) [^14C]-LOS-sCD14 in HBSS+, 10 mM HEPES and chromatographed on Sephacryl S100. Column fractions were analyzed for [^14C]-LOS. Identical results were obtained in analytical (5 ng [^14C]-LOS/ml+200 μl culture medium) or more preparative runs (reagents concentrated 20×). […] Cell activation was measured by IL-8 accumulation. […]
Purified [^14C]-LOSagg or [^14C]-LOS-sCD14 (3 ng LOS/ml)+/−indicated proteins (30 ng/ml LBP, 250 ng/ml sCD14, 60 μl culture medium) were incubated at 37° C. for 30 min. After this incubation, samples were analyzed by gel filtration chromatography to monitor formation of [^14C]-LOS-MD-2 and by incubation with HEK/TLR4 cells to measure cell activation.
Columns of Sephacryl HR S200 (1.6 cm×30 cm) or S100 (1.0 cm×60 cm) were pre-equilibrated in 10 mM HEPES, HBSS^++/−0.1% HSA. […] Aliquots of the collected fractions were analyzed by liquid scintillation spectroscopy using a Beckman LS liquid scintillation counter to detect [^14C]-LOS. […]

T1 sequence (O00206 24-839): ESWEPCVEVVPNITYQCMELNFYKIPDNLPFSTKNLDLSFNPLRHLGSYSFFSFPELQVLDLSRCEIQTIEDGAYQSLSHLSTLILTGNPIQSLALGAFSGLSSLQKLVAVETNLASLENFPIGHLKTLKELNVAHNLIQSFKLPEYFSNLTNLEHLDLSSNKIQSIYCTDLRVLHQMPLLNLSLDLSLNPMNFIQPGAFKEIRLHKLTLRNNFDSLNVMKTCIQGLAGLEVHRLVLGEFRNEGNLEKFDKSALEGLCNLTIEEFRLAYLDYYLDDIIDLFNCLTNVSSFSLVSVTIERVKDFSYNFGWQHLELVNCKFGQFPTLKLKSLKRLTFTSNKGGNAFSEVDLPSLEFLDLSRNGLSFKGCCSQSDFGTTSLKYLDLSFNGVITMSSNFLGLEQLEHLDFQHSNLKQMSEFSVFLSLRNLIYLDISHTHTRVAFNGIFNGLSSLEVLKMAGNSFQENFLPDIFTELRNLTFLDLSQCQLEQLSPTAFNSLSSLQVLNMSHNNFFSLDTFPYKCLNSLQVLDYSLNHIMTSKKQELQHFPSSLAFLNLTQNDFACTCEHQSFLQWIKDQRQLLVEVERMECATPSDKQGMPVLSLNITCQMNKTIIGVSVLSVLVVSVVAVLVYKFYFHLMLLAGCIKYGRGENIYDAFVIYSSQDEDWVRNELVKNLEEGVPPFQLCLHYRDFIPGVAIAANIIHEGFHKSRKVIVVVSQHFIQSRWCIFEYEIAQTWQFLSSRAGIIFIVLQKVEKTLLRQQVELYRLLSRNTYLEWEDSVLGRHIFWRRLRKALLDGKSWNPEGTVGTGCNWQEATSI
T1 sequence (Q9Y6Y9 19-160): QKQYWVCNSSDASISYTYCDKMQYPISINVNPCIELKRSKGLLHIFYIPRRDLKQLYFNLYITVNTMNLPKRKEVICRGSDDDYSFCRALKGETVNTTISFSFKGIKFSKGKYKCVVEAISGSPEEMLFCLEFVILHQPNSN

In the case of “IL-1β: human recombinant IL-1β, positive control [reference compound]”, the “increase in HBD-2 expression” value (human airway epithelia [1]) is reported as > 10,000 fold.

In the case of `CCCCCCCCCCCCCC(=O)O[C@@H]1[C@@H](C)[C@@]2(O)[C@@H](C=C(CO)C[C@]3(O)C(=O)C(C)=C[C@@H]23)[C@@H]2C(C)(C)[C@]12OC(C)=O` [phorbol myristate acetate, reference compound], the “steady state MD-2 mRNA levels” value (human airway epithelia [2]) is reported as “induced”.

B1: C95Y MD-2 (protein)
chain: QKQYWVCNSSDASISYTYCDKMQYPISINVNPCIELKRSKGLLHIFYIPRRDLKQLYFNLYITVNTMNLPKRKEVIYRGSDDDYSFCRALKGETVNTTISFSFKGIKFSKGKYKCVVEAISGSPEEMLFCLEFVILHQPNSNHHHHHH
In the case of B1, the “activation of HEK/TLR4 cells by LOS-sCD14 (or LOSagg+LBP+sCD14) on addition of medium containing MD-2” value (TLR4; IL-8 release, LOS-sCD14 2 ng LOS/ml) is reported as “not seen”, the “inhibition of activation of HEK/TLR4 by [^14C]-LOS-MD-2 by added MD-2” value (TLR4; [^14C]-LOS-MD-2 0.3 ng/ml, increasing amounts of conditioned medium) is reported as “intermediate inhibitory effect” and the “reaction with [^14C]-LOS-sCD14 to generate new Mr˜25,000 [^14C]-LOS-containing complex” value (MD-2) is reported as “no change”.

B2: P6: outer membrane protein P6 from non-typeable Haemophilus influenzae (protein, UniProt P10324 20-153, looked up)
Peptidoglycan-associated …: CSSSNNDAAGNGAAQTFGGYSVADLQQRYNTVYFGFDKYDITGEYVQILDAHAAYLNATPAAKVLVEGNTDERGTPEYNIALGQRRADAVKGYLAGKGVDAGKLGTVSYGEEKPAVLGHDEAAYSKNRRAVLAY
For B2, the “steady state MD-2 mRNA levels” value (human airway epithelia [2]) was “marked increases”.

From patent publication US7164008B2, “Isolated complexes of endotoxin and MD-2” (priority 2003, dated 2007)
